From the supplement of paper PMC9112550, “Optimization of the antimicrobial peptide Bac7 by deep mutational scanning” (BMC Biology, 2022)

The sequences below were run on Escherichia coli TOP10 (assay: shrunken log2 fold change of peptide-encoding DNA abundance (4.5 h post-induction vs induction); higher = less antimicrobial activity (less host growth inhibition)). Conditions: time post-induction: 4.5 h; library: site-saturation at positions 5, 18, 19, 20.
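Also: peptides expressed intracellularly from a pBAD plasmid library in pooled LB shake-flask culture, induced with 0.3% L-arabinose, DNA abundance read by NGS, three biological replicates, DESeq2 with apeglm shrinkage.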

Sequence | shrunken log2 fold change
RRIRRRPPRLPRPRPRPIWMPRP | 0.0986
RRIRFRPPRLPRPRPRPDKGPRP | -0.0555
RRIRERPPRLPRPRPRPAIPPRP | -0.737
RRIRQRPPRLPRPRPRPPYYPRP | -0.829
RRIRWRPPRLPRPRPRPCLCPRP | -0.0914
RRIRARPPRLPRPRPRPLKSPRP | 0.012
RRIRERPPRLPRPRPRPVTEPRP | -0.255
RRIRDRPPRLPRPRPRPEPTPRP | 0.885
RRIRMRPPRLPRPRPRPSCAPRP | 0.563
RRIRPRPPRLPRPRPRPSHHPRP | -0.529
RRIRERPPRLPRPRPRPWWSPRP | -0.0183
RRIRCRPPRLPRPRPRPSFKPRP | -0.75
RRIRNRPPRLPRPRPRPAAIPRP | 1.95
RRIRIRPPRLPRPRPRPNEMPRP | -0.0277
RRIRMRPPRLPRPRPRPMHNPRP | 0.0989
RRIRSRPPRLPRPRPRPWRQPRP | 0.11
RRIRERPPRLPRPRPRPDMRPRP | -3.48e-05
RRIRNRPPRLPRPRPRPKHSPRP | -0.187
RRIRSRPPRLPRPRPRPVKHPRP | 0.124
RRIRRRPPRLPRPRPRPRAIPRP | 0.405
RRIRGRPPRLPRPRPRPLLRPRP | 0.485
RRIRNRPPRLPRPRPRPLKLPRP | -0.207
RRIRWRPPRLPRPRPRPRLSPRP | 0.154
RRIRIRPPRLPRPRPRPGNFPRP | -0.064
RRIRNRPPRLPRPRPRPWTGPRP | -0.0655

Sequence | shrunken log2 fold change
RRIRYRPPRLPRPRPRPTKCPRP | -0.544
RRIRCRPPRLPRPRPRPVNWPRP | 0.393
RRIRWRPPRLPRPRPRPKFWPRP | 0.0806
RRIRWRPPRLPRPRPRPGDFPRP | 0.564
RRIRPRPPRLPRPRPRPSWMPRP | -0.288
RRIRCRPPRLPRPRPRPVFCPRP | -0.131
RRIRWRPPRLPRPRPRPYCTPRP | -0.322
RRIRQRPPRLPRPRPRPNSEPRP | -0.206
RRIRDRPPRLPRPRPRPTYWPRP | 0.01
RRIRRRPPRLPRPRPRPGNCPRP | 0.177
RRIRRRPPRLPRPRPRPGGAPRP | 0.492
RRIRSRPPRLPRPRPRPMGRPRP | 0.0253
RRIRGRPPRLPRPRPRPLPGPRP | 1.01
RRIRWRPPRLPRPRPRPHKWPRP | 0.18
RRIRSRPPRLPRPRPRPQEWPRP | 0.0425
RRIRCRPPRLPRPRPRPHMWPRP | -0.555
RRIRNRPPRLPRPRPRPVQAPRP | -0.00783
RRIRVRPPRLPRPRPRPDEWPRP | 0.0467
RRIRQRPPRLPRPRPRPREAPRP | 0.384
RRIRLRPPRLPRPRPRPQWKPRP | 0.0162
RRIRPRPPRLPRPRPRPYAAPRP | 0.0621
RRIRMRPPRLPRPRPRPAPTPRP | 1.13
RRIRERPPRLPRPRPRPQYMPRP | -0.213
RRIRMRPPRLPRPRPRPETYPRP | 0.451
RRIRVRPPRLPRPRPRPNLVPRP | -0.2

Sequence | shrunken log2 fold change
RRIRARPPRLPRPRPRPSVLPRP | -0.167
RRIRGRPPRLPRPRPRPSIAPRP | 0.669
RRIRNRPPRLPRPRPRPYGMPRP | -0.331
RRIRGRPPRLPRPRPRPHQFPRP | 0.106
RRIRMRPPRLPRPRPRPDFLPRP | 0.0612
RRIRWRPPRLPRPRPRPKEKPRP | 0.0316
RRIRLRPPRLPRPRPRPLSCPRP | -0.0916
RRIRNRPPRLPRPRPRPYMLPRP | -0.14
RRIRYRPPRLPRPRPRPADVPRP | -0.127
RRIRPRPPRLPRPRPRPADKPRP | 0.0949
RRIRTRPPRLPRPRPRPHVGPRP | 0.0439
RRIRWRPPRLPRPRPRPMGDPRP | 0.676
RRIRTRPPRLPRPRPRPIGWPRP | 0.6
RRIRMRPPRLPRPRPRPNQEPRP | -0.0314
RRIRWRPPRLPRPRPRPYNWPRP | -1.06
RRIRARPPRLPRPRPRPFMRPRP | 0.59
RRIRWRPPRLPRPRPRPGKAPRP | 0.0616
RRIRVRPPRLPRPRPRPPEEPRP | 0.0908
RRIRPRPPRLPRPRPRPKVWPRP | 0.318
RRIRQRPPRLPRPRPRPRQEPRP | 0.0978
RRIRQRPPRLPRPRPRPQQNPRP | -0.0678
RRIRKRPPRLPRPRPRPNSAPRP | 0.393
RRIRIRPPRLPRPRPRPSTVPRP | -0.566
RRIRQRPPRLPRPRPRPNLWPRP | -0.0933
RRIRGRPPRLPRPRPRPMRLPRP | 1.05

Sequence | shrunken log2 fold change
RRIRPRPPRLPRPRPRPIQSPRP | -0.083
RRIRKRPPRLPRPRPRPSFNPRP | 0.0137
RRIRFRPPRLPRPRPRPPCPPRP | 0.46
RRIRYRPPRLPRPRPRPKQDPRP | -0.488
RRIRPRPPRLPRPRPRPCKNPRP | -0.328
RRIRLRPPRLPRPRPRPKREPRP | 0.0937
RRIRCRPPRLPRPRPRPMWSPRP | -0.147
RRIRSRPPRLPRPRPRPEQGPRP | 0.0683
RRIRCRPPRLPRPRPRPVITPRP | -0.496
RRIRDRPPRLPRPRPRPMLTPRP | 0.155
RRIRLRPPRLPRPRPRPCIHPRP | -0.392
RRIRKRPPRLPRPRPRPWIDPRP | -0.00174
RRIRARPPRLPRPRPRPIARPRP | 1.01
RRIRARPPRLPRPRPRPSYVPRP | -0.232
RRIRKRPPRLPRPRPRPSMVPRP | -0.13
RRIRLRPPRLPRPRPRPVDDPRP | -0.219
RRIRRRPPRLPRPRPRPIIDPRP | -0.125
RRIRPRPPRLPRPRPRPMTYPRP | -0.437
RRIRLRPPRLPRPRPRPDDVPRP | -0.00776
RRIRMRPPRLPRPRPRPCFVPRP | -0.103
RRIRIRPPRLPRPRPRPMKFPRP | -0.387
RRIRGRPPRLPRPRPRPPNWPRP | 0.862
RRIRERPPRLPRPRPRPNGAPRP | 0.0556
RRIRSRPPRLPRPRPRPWYKPRP | -0.137
RRIRARPPRLPRPRPRPEMGPRP | 1.12

Sequence | shrunken log2 fold change
RRIRMRPPRLPRPRPRPGSRPRP | 0.991
RRIRMRPPRLPRPRPRPKKYPRP | 1.26
RRIRCRPPRLPRPRPRPIKVPRP | -0.000403
RRIRCRPPRLPRPRPRPQNVPRP | -0.749
RRIRMRPPRLPRPRPRPMSQPRP | 0.0528
RRIRCRPPRLPRPRPRPICTPRP | -0.307
RRIRPRPPRLPRPRPRPSANPRP | -0.00762
RRIRVRPPRLPRPRPRPNYHPRP | -0.489
RRIRLRPPRLPRPRPRPPRCPRP | 0.744
RRIRLRPPRLPRPRPRPEFAPRP | 0.342
RRIRCRPPRLPRPRPRPEAHPRP | 0.38
RRIRPRPPRLPRPRPRPYKHPRP | -0.777
RRIRRRPPRLPRPRPRPSLDPRP | 0.34
RRIRWRPPRLPRPRPRPQAPPRP | -0.164
RRIRARPPRLPRPRPRPCDGPRP | 0.146
RRIRQRPPRLPRPRPRPVRAPRP | 0.38
RRIRLRPPRLPRPRPRPLALPRP | -0.438
RRIRFRPPRLPRPRPRPYYNPRP | -0.855
RRIRARPPRLPRPRPRPWFTPRP | -0.316
RRIRLRPPRLPRPRPRPHQHPRP | -0.109
RRIRFRPPRLPRPRPRPTKPPRP | -0.00249
RRIRPRPPRLPRPRPRPDFGPRP | -0.19
RRIRGRPPRLPRPRPRPNSMPRP | 0.0537
RRIRIRPPRLPRPRPRPMKQPRP | -0.0367
RRIRSRPPRLPRPRPRPIMWPRP | -0.109
